From patent publication US20240166767A1 (SCIRHOM, published 2024) come the findings set out here.

Residue numbers refer to the chain shown, from its start.

For the experiment, the target named is T1, human iRhom1 full length wild type C-terminally tagged with 3 consecutive copies of the T7 epitope (human, UniProt Q96CC6 1-855).
T1 construct: also called hiR1-FL-WT-T7; human iRhom1 variant
T1 sequence: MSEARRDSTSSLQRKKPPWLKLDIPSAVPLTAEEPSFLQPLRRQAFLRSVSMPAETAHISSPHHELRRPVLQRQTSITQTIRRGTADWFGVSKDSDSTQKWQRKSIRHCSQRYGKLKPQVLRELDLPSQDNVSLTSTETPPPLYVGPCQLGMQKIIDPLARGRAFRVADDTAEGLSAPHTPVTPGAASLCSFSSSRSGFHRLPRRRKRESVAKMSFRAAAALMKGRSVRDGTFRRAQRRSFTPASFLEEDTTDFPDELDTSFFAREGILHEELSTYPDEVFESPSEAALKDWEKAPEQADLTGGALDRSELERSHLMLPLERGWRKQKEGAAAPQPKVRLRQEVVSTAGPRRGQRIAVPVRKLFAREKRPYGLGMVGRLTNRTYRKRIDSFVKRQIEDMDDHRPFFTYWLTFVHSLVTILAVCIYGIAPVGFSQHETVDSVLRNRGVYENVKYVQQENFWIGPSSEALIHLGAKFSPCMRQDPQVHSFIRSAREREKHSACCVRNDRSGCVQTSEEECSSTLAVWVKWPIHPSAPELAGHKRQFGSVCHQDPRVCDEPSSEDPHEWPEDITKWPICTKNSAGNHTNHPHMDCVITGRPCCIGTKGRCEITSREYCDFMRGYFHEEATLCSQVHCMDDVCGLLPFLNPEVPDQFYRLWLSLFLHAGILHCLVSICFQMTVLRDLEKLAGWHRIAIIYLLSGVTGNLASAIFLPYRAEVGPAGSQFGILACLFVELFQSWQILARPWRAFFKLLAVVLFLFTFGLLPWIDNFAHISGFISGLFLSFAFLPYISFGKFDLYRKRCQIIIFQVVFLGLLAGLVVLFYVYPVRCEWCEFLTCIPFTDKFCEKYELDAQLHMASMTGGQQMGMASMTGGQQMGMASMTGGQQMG
As to the kind of experiment: FACS on MEF-DKO-hiR1-FL-WT-T7 cells. The method, then:
In brief, in addition to immortalized MEF-DKO-EV control cells and MEF-DKO-hiR2-FL-WT-T7 cells (as already described in example 3), MEF-DKO-hiR1-FL-WT-T7 cells were harvested with 10 mM EDTA in PBS, washed and resuspended in FACS buffer (PBS, 3% FBS, 0.05% sodium azide), and seeded in Nunc U-bottom 96-well plates (Thermo Fisher Scientific, USA) at approximately 3×10⁵ cells per well. To pellet cells and remove supernatants, the plates were centrifuged at 1,500 rpm and 4° C. for 3 minutes. For primary staining, cells were resuspended in 100 μl per well of either FACS buffer alone (controls), mouse monoclonal anti-T7 IgG (Merck Millipore, USA) at 3 μg/ml FACS buffer or the humanized antibodies 16-B-03, 16-B-05, 16-B-07, 23-B-04, 42-B-02, 42-B-04 of the invention also at 3 μg/ml FACS buffer and incubated on ice for 1 hour. Afterwards, plates were centrifuged at 1,500 rpm and 4° C. for 3 minutes and washed twice with 200 μl per well of FACS buffer. For secondary staining of previous anti T7 staining, cells were spun down and resuspended in 100 μl per well of PE-conjugated goat anti-mouse IgG F(ab′)2 detection fragment (Dianova, Germany) diluted 1:100 in FACS buffer. For secondary staining of previous staining with humanized antibodies of invention, cells were spun down and resuspended in 100 μl per well of PE-conjugated goat anti-human IgG F(ab′)2 detection fragment (Dianova, Germany) diluted 1:100 in FACS buffer. Protected from light, the cell suspensions were incubated on ice for 1 hour. Plates were then centrifuged at 1,500 rpm and 4° C. for 3 minutes and washed three times with 200 μl per well of FACS buffer. Finally, cells were resuspended in 150 μl per well of FACS buffer and analyzed using a BD Accuri™ C6 Plus flow cytometer (Becton Dickinson, Germany).

B1: humanized antibody 42-B-04 (antibody, V domains shown)
VH: QVTLRESGPALVKPTQTLTLTCTFSGFSLSTFGRGVGWIRQPPGKALEWLAHIWWDDEKYYNSALKSRLTISKDTSKNQVVLTITNMDPVDTATYYCARIQNYGSNYWYFDVWGQGTLVTVSS
VL: AIQLTQSPSSLSASVGDRVTITCRASSRISYMFWYQQKPGKAPKVLIYDTSNLASGVPSRFSGSGSGTDYTLTISSLQPEDFATYYCQQWNAYPLTFGQGTKLEIK
notes: Tested as whole humanized antibody produced in CHO cells and detected with anti-human IgG; the general methods speak of human IgG1/Kappa; also called clone 42-B-04
B1: the binding result is given as “no binding (tested: 3 µg/ml)”.

B2: humanized antibody 23-B-04 (antibody, V domains shown)
VH: B1 VH with R34M, Q101S, D111N
VL: B1 VL with R28S, I29V, F33Y
notes: Tested as whole humanized antibody produced in CHO cells and detected with anti-human IgG; the general methods speak of human IgG1/Kappa; also called clone 23-B-04
On to B2, for which the binding result is on record as “no binding (tested: 3 µg/ml)”.

B3: humanized antibody 42-B-02 (antibody, V domains shown)
VH: B1 VH
VL: B1 VL with A92S
notes: Tested as whole humanized antibody from transient expression of heavy chain/kappa light chain pairs in CHO cells, detected with anti-human IgG; the general methods speak of human IgG1/Kappa; also called clone 42-B-02
In the case of B3, the binding result is “no binding (tested: 3 µg/ml)”.

B4: humanized antibody 16-B-07 (antibody, V domains shown)
VH: QVTLRESGPALVKPTQTLTLTCTFSGFSLSTFALGVGWIRQPPGKALEWLAHIWWDEDKYYNPALKSRLTISKDTSKNQVVLTITNMDPVDTATYYCARITTYYYGMDYWGQGTLVTVSS
VL: EIVMTQSPDFQSVTPKEKVTITCRASQSIGNHLHWYQQKPDASPKLLIKYASQSISGVPSRFSGSGSGTDFTLTINSLEAEDAATYFCQQSYQWPLTFGQGTKLEIK
notes: Tested as whole humanized antibody produced in CHO cells and detected with anti-human IgG; the general methods speak of human IgG1/Kappa; also called clone 16-B-07
For B4, the binding result was “no binding (tested: 3 µg/ml)”.

B5: humanized antibody 16-B-03 (antibody, V domains shown)
VH: B4 VH with E57D
VL: B4 VL
notes: Tested as whole humanized antibody produced in CHO cells and detected with anti-human IgG; the general methods speak of human IgG1/Kappa; also called clone 16-B-03
For B5, the binding result is listed as “no binding (tested: 3 µg/ml)”.

B6: humanized antibody 16-B-05 (antibody, V domains shown)
VH: B4 VH
VL: B4 VL with Q93N
notes: Tested as whole humanized antibody produced in CHO cells and detected with anti-human IgG; the general methods speak of human IgG1/Kappa; The printed LCVD reads SRESGSG where the printed cDNA encodes SRFSGSG; also called clone 16-B-05
In the case of B6, the binding result is given as “no binding (tested: 3 µg/ml)”.
